# Measured values as given in patent US20190134153A1, “IMMUNOMODULATORY EFFECT OF INHALED KINASE INHIBITOR PEPTIDES IN LUNG” (MOERAE MATRIX, INC., priority 2017, published 2019).
# Key:
# Test in all cases: Kinase Profiling Assay
# Type in all cases: biochemical
# Details in all cases: 100 μM
# [1] = target: EphA7(h) (Homo sapiens, UniProt Q15375)
# [2] = target: MELK(h) (Homo sapiens, UniProt Q14680)
# [3] = target: Src(T341M)(h) (Homo sapiens, UniProt P12931, T341M)
# [4] = target: Tie2(Y897S)(h) (Homo sapiens, UniProt Q02763, Y897S)
# [5] = target: MSK1(h) (Homo sapiens, UniProt O75582)
# [6] = target: Fms(Y969C)(h) (Homo sapiens, UniProt P07333, Y969C)
# [7] = target: GSK3β(h) (Homo sapiens, UniProt P49841)
# [8] = target: Abl(Y253F)(h) (Homo sapiens, UniProt P00519, Y253F)
# [9] = target: ALK(h) (Homo sapiens, UniProt Q9UM73)
# [10] = target: MSK2(h) (Homo sapiens, UniProt O75676)
# [11] = target: T1, EphA8(h) (Homo sapiens, UniProt P29322)
# T1 sequence (P29322 28-1005): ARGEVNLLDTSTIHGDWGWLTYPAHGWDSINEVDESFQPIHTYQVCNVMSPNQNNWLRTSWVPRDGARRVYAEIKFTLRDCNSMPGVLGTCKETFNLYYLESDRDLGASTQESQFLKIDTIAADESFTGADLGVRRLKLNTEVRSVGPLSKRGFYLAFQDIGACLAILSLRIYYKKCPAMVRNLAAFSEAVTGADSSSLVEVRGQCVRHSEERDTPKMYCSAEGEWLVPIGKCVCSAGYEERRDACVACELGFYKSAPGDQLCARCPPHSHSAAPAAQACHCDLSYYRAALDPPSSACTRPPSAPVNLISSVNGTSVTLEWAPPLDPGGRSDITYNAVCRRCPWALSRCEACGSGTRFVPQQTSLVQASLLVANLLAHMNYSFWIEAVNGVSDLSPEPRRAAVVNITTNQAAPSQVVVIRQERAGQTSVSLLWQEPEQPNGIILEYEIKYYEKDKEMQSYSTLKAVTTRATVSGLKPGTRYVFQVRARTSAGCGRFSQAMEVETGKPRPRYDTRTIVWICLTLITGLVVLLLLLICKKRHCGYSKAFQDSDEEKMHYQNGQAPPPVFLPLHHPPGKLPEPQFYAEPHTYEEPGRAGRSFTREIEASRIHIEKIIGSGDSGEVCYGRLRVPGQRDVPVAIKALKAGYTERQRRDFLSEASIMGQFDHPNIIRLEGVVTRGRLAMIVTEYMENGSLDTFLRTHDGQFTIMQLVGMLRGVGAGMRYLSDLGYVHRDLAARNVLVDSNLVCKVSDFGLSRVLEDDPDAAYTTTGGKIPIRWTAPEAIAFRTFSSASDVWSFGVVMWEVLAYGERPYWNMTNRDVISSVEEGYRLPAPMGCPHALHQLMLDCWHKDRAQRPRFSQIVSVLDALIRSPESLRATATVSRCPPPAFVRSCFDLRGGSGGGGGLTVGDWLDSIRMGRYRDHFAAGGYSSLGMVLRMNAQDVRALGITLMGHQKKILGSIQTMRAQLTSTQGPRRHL
# [12] = target: T2, EphB1(h) (Homo sapiens, UniProt P54762)
# T2 sequence (P54762 18-984): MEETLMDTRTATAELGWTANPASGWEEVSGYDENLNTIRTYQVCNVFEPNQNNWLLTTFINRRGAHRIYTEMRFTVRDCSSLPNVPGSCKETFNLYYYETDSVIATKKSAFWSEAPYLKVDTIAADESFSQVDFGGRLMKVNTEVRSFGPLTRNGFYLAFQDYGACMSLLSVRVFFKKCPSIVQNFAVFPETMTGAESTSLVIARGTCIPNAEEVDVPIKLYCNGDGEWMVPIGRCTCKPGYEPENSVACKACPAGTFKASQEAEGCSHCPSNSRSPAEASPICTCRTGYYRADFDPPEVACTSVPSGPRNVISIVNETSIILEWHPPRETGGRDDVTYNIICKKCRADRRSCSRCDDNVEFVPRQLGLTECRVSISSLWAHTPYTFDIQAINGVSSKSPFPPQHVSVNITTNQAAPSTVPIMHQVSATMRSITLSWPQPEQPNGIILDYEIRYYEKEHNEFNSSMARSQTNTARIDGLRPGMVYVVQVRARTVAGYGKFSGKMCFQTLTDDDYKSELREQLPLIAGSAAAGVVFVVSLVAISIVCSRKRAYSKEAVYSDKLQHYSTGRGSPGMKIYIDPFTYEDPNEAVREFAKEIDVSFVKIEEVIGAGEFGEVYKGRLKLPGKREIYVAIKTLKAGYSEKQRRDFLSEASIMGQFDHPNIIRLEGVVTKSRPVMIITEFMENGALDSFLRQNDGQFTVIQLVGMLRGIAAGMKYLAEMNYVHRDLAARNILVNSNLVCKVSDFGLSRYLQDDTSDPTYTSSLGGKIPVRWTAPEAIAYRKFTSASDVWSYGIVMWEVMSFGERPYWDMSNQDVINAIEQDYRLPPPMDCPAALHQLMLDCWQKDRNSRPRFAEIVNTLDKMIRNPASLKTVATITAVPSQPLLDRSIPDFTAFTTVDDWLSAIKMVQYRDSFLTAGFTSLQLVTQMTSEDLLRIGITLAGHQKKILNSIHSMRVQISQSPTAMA
# [13] = target: EGFR(L861Q)(h) (Homo sapiens, UniProt P00533, L861Q)
# [14] = target: Met(M1268T)(h) (Homo sapiens, UniProt P08581, M1250T)
# [15] = target: Met(Y1248H)(h) (Homo sapiens, UniProt P08581, Y1230H)
# [16] = target: FAK(h) (Homo sapiens, UniProt Q05397)
# Chain of FAK(h) (Q05397 whole entry): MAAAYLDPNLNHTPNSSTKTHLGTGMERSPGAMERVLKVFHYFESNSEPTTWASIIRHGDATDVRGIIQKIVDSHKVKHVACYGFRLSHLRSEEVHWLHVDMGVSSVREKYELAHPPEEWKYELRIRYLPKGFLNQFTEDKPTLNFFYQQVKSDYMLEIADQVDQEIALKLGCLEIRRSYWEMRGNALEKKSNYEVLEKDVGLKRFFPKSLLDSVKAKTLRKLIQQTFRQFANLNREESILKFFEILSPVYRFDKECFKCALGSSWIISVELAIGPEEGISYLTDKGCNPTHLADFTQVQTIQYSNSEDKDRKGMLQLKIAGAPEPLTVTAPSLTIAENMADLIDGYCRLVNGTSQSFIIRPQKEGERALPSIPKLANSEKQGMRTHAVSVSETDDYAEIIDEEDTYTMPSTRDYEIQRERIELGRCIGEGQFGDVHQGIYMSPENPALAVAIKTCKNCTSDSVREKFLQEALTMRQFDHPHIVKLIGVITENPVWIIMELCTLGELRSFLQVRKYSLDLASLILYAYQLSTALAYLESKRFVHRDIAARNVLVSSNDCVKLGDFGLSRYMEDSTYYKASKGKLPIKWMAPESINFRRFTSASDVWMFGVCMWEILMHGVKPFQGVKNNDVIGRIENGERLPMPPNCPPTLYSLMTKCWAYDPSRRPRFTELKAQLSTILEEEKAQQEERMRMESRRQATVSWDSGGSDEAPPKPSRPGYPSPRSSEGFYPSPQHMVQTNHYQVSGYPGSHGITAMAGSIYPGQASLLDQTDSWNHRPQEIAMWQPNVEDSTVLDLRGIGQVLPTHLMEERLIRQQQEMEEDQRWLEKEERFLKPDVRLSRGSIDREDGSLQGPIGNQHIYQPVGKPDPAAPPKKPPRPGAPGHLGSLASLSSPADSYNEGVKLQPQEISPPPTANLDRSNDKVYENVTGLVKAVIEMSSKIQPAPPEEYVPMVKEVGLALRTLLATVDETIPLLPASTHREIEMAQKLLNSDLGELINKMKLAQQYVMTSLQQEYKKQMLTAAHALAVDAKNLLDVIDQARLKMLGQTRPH
# Chain of GSK3β(h) (P49841 whole entry): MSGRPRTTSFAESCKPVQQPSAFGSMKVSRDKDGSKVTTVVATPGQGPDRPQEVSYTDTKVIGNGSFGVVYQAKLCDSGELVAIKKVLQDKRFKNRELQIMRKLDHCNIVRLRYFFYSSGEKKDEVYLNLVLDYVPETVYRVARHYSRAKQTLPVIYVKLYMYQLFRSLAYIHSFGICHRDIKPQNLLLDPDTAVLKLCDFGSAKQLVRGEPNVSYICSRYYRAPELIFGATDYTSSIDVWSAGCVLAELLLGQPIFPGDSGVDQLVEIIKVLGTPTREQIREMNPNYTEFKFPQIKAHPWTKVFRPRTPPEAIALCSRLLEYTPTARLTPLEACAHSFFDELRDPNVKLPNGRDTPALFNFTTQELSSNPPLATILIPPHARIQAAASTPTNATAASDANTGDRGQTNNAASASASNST
# Chain of MSK1(h) (O75582 whole entry): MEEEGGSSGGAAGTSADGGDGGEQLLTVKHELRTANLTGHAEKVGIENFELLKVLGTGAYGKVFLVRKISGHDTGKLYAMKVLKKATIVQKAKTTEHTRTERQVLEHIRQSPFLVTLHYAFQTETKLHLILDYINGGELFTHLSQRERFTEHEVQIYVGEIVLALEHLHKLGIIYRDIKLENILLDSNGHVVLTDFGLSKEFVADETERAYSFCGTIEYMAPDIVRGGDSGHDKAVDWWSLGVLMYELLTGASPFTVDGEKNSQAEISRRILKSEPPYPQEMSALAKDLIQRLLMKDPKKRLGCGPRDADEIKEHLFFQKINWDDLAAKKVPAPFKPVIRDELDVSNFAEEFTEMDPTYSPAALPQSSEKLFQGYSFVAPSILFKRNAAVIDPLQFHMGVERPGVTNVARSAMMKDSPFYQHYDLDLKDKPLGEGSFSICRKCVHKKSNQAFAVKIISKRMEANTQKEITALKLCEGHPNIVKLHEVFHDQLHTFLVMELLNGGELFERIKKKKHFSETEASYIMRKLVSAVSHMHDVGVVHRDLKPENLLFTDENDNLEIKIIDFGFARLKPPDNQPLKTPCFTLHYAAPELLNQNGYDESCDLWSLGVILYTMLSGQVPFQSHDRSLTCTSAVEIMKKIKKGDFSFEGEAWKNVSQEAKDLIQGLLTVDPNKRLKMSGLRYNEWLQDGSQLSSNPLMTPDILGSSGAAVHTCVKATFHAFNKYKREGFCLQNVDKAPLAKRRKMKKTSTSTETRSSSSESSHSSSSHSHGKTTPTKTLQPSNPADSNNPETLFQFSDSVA
# Chain of EphA7(h) (Q15375 28-998): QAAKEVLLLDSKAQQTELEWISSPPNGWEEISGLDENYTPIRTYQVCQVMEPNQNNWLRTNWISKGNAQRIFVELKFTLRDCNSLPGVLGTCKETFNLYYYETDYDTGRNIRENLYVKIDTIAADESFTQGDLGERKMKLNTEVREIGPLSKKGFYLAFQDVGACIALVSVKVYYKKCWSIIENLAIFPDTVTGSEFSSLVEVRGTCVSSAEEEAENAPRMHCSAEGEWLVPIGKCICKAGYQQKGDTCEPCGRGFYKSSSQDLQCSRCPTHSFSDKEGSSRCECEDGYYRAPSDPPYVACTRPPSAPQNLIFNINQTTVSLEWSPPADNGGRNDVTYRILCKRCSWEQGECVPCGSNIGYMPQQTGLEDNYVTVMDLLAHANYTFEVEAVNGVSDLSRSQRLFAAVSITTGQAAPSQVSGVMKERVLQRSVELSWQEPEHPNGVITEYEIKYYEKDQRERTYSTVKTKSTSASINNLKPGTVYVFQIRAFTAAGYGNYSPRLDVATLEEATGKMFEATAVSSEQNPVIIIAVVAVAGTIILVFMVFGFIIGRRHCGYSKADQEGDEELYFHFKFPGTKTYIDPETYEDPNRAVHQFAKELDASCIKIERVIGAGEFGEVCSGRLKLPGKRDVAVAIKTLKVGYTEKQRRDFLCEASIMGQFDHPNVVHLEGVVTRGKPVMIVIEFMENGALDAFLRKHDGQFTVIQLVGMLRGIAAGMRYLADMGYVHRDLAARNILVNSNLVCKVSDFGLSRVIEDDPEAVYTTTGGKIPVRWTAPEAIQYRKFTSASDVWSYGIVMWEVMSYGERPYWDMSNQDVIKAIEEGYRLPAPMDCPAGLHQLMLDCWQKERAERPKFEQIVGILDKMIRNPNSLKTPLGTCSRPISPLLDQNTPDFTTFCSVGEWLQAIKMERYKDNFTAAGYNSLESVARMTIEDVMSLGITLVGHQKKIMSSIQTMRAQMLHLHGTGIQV
# Chain of MSK2(h) (O75676 whole entry): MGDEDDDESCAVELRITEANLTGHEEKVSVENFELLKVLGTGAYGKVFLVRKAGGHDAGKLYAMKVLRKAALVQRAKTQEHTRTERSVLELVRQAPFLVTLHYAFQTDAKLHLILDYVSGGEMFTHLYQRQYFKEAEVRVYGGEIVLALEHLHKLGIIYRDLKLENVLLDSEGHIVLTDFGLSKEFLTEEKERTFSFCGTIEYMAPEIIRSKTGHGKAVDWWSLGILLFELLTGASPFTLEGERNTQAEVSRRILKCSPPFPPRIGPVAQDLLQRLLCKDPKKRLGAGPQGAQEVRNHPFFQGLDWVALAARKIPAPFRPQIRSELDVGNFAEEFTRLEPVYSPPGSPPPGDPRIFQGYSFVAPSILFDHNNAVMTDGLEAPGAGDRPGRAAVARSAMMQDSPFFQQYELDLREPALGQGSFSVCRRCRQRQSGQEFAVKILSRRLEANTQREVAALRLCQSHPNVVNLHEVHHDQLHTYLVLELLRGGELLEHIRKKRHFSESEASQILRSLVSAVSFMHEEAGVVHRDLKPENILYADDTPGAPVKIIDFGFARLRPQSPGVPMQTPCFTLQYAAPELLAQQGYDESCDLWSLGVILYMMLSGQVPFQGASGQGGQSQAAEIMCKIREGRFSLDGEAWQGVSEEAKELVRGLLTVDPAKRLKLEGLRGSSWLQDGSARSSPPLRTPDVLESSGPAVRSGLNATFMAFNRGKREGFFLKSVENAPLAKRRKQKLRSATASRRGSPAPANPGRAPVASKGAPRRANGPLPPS
# Chain of MELK(h) (Q14680 whole entry): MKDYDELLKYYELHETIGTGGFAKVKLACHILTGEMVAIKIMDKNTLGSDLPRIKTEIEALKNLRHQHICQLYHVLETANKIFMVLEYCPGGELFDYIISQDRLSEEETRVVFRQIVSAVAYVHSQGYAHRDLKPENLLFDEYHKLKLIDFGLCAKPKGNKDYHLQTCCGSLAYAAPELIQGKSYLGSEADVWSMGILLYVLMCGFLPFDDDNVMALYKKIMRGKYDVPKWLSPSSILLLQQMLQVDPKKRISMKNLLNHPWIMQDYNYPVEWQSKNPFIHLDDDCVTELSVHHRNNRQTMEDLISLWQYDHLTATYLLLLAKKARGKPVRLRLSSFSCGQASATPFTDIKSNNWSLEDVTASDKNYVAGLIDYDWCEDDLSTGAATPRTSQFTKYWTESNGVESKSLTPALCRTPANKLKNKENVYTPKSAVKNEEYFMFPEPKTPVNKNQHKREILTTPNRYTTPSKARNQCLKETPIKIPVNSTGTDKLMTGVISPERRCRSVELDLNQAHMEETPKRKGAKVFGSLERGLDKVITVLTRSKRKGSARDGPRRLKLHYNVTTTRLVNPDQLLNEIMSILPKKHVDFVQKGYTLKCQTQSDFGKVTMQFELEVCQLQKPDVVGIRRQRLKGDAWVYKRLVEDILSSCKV
Sequence,% activity [1],% activity [2],% activity [3],% activity [4],% activity [5],% activity [6],% activity [7],% activity [8],% activity [9],% activity [10],% activity [11],% activity [12],% activity [13],% activity [14],% activity [15],% activity [16]
FAKLAARLYRKALARQLGVAA [MMI-0300],159%,16%,70%,83%,32%,72%,205%,86%,19%,56%,93%,44%,25%,255%,,
KAFAKLAARLYRKALARQLGVAA [MMI-0400],222%,17%,76%,87%,28%,91%,202%,78%,16%,52%,146%,58%,22%,265%,63%,96%
YARAAARQARAKALNRQLGVA [MMI-0200],220%,59%,56%,85%,50%,88%,132%,,95%,88%,133%,95%,74%,143%,153%,110%
HRRIKAWLKKIKALARQLGVAA [MMI-0500],189%,0%,59%,80%,8%,,238%,29%,12%,14%,337%,37%,15%,239%,126%,94%
